{
  "source": "patent US20240277803A1",
  "about": "“NME INHIBITORS AND METHODS OF USING NME INHIBITORS” (Minerva Biotechnologies Corporation, priority 2013, published 2024)",
  "molecules": {"B1": {"name": "NME7-AB: recombinant human NME7 of NDPK A and B domains without the DM10 leader sequence, ~33 kDa (SEQ ID NO:39) (protein, listed as Homo sapiens)", "chain": "MEKTLALIKPDAISKAGEIIEIINKAGFTITKLKMMMLSRKEALDFHVDHQSRPFFNELIQFITTGPIIAMEILRDDAICEWKRLLGPANSGVARTDASESIRALFGTDGIRNAAHGPDSFASAAREMELFFPSSGGCGPANTAKFTNCTCCIVKPHAVSEGLLGKILMAIRDAGFEISAMQMFNMDRVNVEEFYEVYKGVVTEYHDMVTEMYSGPCVAMEIQQNNATKTFREFCGPADPEIARHLRPGTLRAIFGKTKIQNAVHCTDLPEDGLLEVQYFFKILDN", "modifications": "Human NME7-AB"}},
  "key": {"T47D breast cancer cells": {"system": "T47D breast cancer cells", "assay": "RT-PCR of T47D cells cultured in 2i inhibitors and/or NME7-AB (FIGS. 48, 49)", "format": "cell-based", "experimental": "2i inhibitors, which are small molecule inhibitors of GSK3-beta and MEK of the MAP kinase signaling pathway, have been reported (Silva J et al, 2008) to revert mouse primed stem cells to the naïve state. We wondered whether these inhibitors could also revert human cancer cells to the cancer stem cell state. T47D breast cancer cells were cultured for 10 days in a serum-free minimal base media with the 2i inhibitors added or in the same base media with human recombinant NME7-AB added, or both NME7-AB and 2i. […] The relative potency of inducing the cancer stem cell markers was NME7>NME7+2i>2i (FIG. 48)."}, "A panel of cancer cells": {"system": "A panel of cancer cells", "assay": "PCR of stem and cancer stem cell markers in cancer cells cultured in NME proteins", "format": "cell-based", "conditions": "cell type not given", "experimental": "Another function that NME1 and NME7 have is the ability to transform cancer cells to the more metastatic cancer stem cell state, also called tumor initiating cells. A panel of cancer cells were cultured in a serum-free minimal base media with human NME7-AB or human NME1 dimers (‘NM23’ in figures) as the only growth factor or cytokine. After several days in this media, cells began to float off the surface and continued to grow in solution. The ‘floaters’ were collected and separately analyzed by PCR. Cells in other wells were treated with a rho kinase inhibitor (‘Ri in figures’). Quantitative PCR measurements show an increase of the cancer stem cell markers, some of which used to be thought of as stem cell markers only (Miki J et al 2007, Jeter C R et al 2011, Hong X et al 2012Faber A et al 2013, Mukherjee D et al 2013, Herreros-Villanueva M et al, 2013, Sefah K et al, 2013; Su H-T et al 2013). […] We observed a more modest, but trending, increase in markers of cancer stem cells and metastasis even in cells that were MUC1-negative (FIG. 47). We therefore conclude that NME7 likely is able to enter these cells by a route other than MUC1* wherein it can still act as a transcription factor and affect the expression levels of these genes. […] However, many cancers mutate NME1 so that it resists the formation of the self-replication limiting hexamer. Unlike NME1, NME7 is always active.\nStandard methods were used to perform RT-PCR. The primers used are listed below: RNA was isolated using the Trizol® Reagent (Invitrogen) and cDNA was reverse transcribed with Random Hexamers (Invitrogren) using Super Script II (Invitrogen) and subsequently assayed for the genes FOXA2, XIST, KLF2, KLF4, NANOG and OCT4, using Applied Biosystems gene expression assays (OCT4 P/N Hs00999634_gH, Nanog P/N Hs02387400_g1, KLF2 P/N Hs00360439_g1, KLF4 P/N Hs00358836_m1, FOXa2 P/N Hs00232764_m1, OTX2 P/N Hs00222238_m1, LHX2 P/N Hs00180351_m1, XIST P/N Hs01079824 ml and GAPDH P/N 4310884E), on an Applied Biosystems 7500 real-time instrument. Each sample was run in triplicate. Gene expression was normalized to GAPDH. Data are expressed as a fold change relative to control."}, "[1]": {"target": "T1, MUC1* extra cellular domain peptide (Homo sapiens, UniProt P15941)", "T1 sequence (P15941 with tags, fused parts or gaps)": "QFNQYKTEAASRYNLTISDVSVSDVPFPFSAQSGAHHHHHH", "assay": "gold nanoparticle binding assay, NME7 and MUC1* peptide (FIG. 7)", "conditions": "protein added free in solution", "experimental": "Gold nanoparticles of a diameter of 30.0 nm were coated with an NTA-SAM surface according to Thompson et al. (ACS Appl. Mater. Interfaces, 2011, 3 (8), pp 2979-2987). The NTA-SAM coated gold nanoparticles were then activated with an equal volume of 180 uM NiSO4, incubated for 10 min at room temperature, washed, and resuspended in a 10 mM phosphate buffer ([…]). The gold nanoparticles were then loaded with PSMGER N-10 peptide ([…] (SEQ ID NO:155)) at 0.5 uM final concentration, and incubated at room temperature for 10 min. Recombinant NME7-AB protein expressed and purified from E. coli was added free in solution at the concentrations indicated. When particle-immobilized proteins bind to each other, or simultaneously bind to two different peptides on two different particles, the particle solution color changes from pink/red to purple/blue. If the protein added free in solution causes particle aggregation, it is strong evidence that the free protein dimerizes the cognate peptide, since binding to a single peptide would not induce two or more particles to be brought into close proximity to each other.\nThe NME7-AB is added free in solution at the concentrations indicated. Solution color change from pink to purple/blue from particle aggregation indicates binding between the MUC1* peptide on the particles and NME7 free in solution. […] Particle aggregation, indicating NME7 can simultaneously bind to two peptides is observed. […] The T47D breast cancer cell line Lysate, which contains native NME7 turns noticeably purple also."}, "Human stem cells (iPS)": {"system": "Human stem cells (iPS)", "assay": "human iPS stem cell culture in NME7-AB or NM23-H1 dimers", "format": "cell-based", "experimental": "Testing recombinant NME7 for ability to maintain pluripotency and inhibit differentiation. A soluble variant of NME7, NME7-AB, was generated and purified. Human stem cells (iPS cat #SC101a-1, System Biosciences) were grown per the manufacturer's directions in 4 ng/ml bFGF over a layer of mouse fibroblast feeder cells for four passages. These source stem cells were then plated into 6-well cell culture plates (Vita™, Thermo Fisher) that had been coated with 12.5 ug/well of a monoclonal anti-MUC1* antibody, MN-C3. Cells were plated at a density of 300,000 cells per well. The base media was Minimal Stem Cell Media consisting of: 400 ml DME/F12/GlutaMAX I (Invitrogen #10565-018), 100 ml Knockout Serum Replacement (KO-SR, Invitrogen #10828-028), 5 ml 100×MEM Non-essential Amino Acid Solution (Invitrogen#11140-050) and 0.9 ml (0.1 mM) β-mercaptoethanol (55 mM stock, Invitrogen #21985-023). The base media can be any media. In a preferred embodiment, the base media is free of other growth factors and cytokines. To the base media was added either 8 nM of NME7-AB or 8 nM NM23-H1 refolded and purified as stable dimers. Media was changed every 48 hours and due to accelerated growth had to be harvested and passaged at Day 3 post-plating. FIGS. 9 and 10 document the day by day comparison of growth in NM23-H1 dimers to growth in NME7 monomers. […] Cell counts at the first harvest verified that culture in NME7 produced 1.4-times more cells than culture in NM23-H1 dimers."}},
  "data": [
    {"molecule": "B1", "values": [
      {"measurement": "expression of CDH1, CXCR4, OCT4, SOX2 and NANOG", "setting": "T47D breast cancer cells; T47D cultured for 10 days in serum-free minimal base media, FIG. 48", "result": "greatly up-regulated"},
      {"measurement": "expression of BRD4, JMJD6, MBD3 and CHD4", "setting": "T47D breast cancer cells; T47D, FIG. 49", "result": "similarly down-regulated"},
      {"measurement": "up-regulation of KLF4", "setting": "A panel of cancer cells", "result": 4, "unit": "X"},
      {"measurement": "up-regulation of MUC1", "setting": "A panel of cancer cells", "result": 10, "unit": "X"},
      {"measurement": "up-regulation of NANOG", "setting": "A panel of cancer cells", "result": "~10", "unit": "X"},
      {"measurement": "up-regulation of OCT4", "setting": "A panel of cancer cells", "result": "~50", "unit": "X"},
      {"measurement": "up-regulation of SOX2", "setting": "A panel of cancer cells", "result": "> 150", "unit": "X"},
      {"measurement": "up-regulation of cancer stem cell marker CXCR4", "setting": "A panel of cancer cells", "result": "~200", "unit": "X"},
      {"measurement": "up-regulation of cancer stem cell marker E-cadherin (CDH1)", "setting": "A panel of cancer cells", "result": "up-regulates"},
      {"measurement": "binding to MUC1* peptide on nanoparticles (color change pink to purple/blue)", "setting": "[1]", "result": "turned purple almost immediately"},
      {"measurement": "binding to MUC1* peptide on nanoparticles (color change pink to purple/blue)", "setting": "[1]; listed as NME7", "result": "has two binding sites for the MUC1* peptide"},
      {"measurement": "stem cell growth, pluripotency and differentiation", "setting": "Human stem cells (iPS); 8 nM in minimal media over MN-C3 surface", "result": "fully supported human stem cell growth"},
      {"measurement": "cells produced relative to culture in NM23-H1 dimers (cell counts at first harvest)", "setting": "Human stem cells (iPS); 8 nM, Day 3 post-plating", "result": 1.4, "unit": "times"}
    ]}
  ]
}
